For this assay, the target named is PKA catalytic subunit (PKAc), recombinant (UniProt P05132). As to the kind of experiment: fluorescence polarisation; LiReC competition assay, R-subunit inhibition response without cAMP: 10.0 nM PKAc, 1 nM-1 μM bRIα (monomer), 1.67 nM [5/6-FAM]-IP20; 50 mM MOPS pH 7.0, 35 mM NaCl, 10 mM MgCl2, 1 mM ATP, 2 mM DTT, 0.005% Triton X-100.

What is called IC50 is the concentration that inhibits the measured activity by half. By Kd is commonly meant the concentration at which binding is half-saturated.

As for “recombinant bovine PKA regulatory subunit RIα (bRIα), S101E phosphomimetic mutant (from UniProt P00514 1-380) (natural protein)”, the IC50 is 212 nM.
Take “recombinant bovine PKA regulatory subunit RIα (bRIα), wildtype (from UniProt P00514 1-380) (natural protein)”: the IC50 is 4.5 nM and the dissociation constant Kd was below 10 nM.
As for “recombinant bovine PKA regulatory subunit RIα (bRIα), S101A mutant (from UniProt P00514 1-380) (natural protein)”, the IC50 was 5.05 nM and the Kd is below 10 nM.
